Results published in the RNAGym collection of RNA variant scans (doi:10.1073/pnas.2313332121).

B1: TPR t1 (parent)
chain: GACCAAUCUGCCCUCAGAGCUCGAGAACAUCUUCGGAUGCAGAGGAGGCAGGCUUCGGUGGCGCGAUAGCGCCAACGUCCUCAACCUCCAAUGCAUCCCACCACAUGAUGAUGCCUGAAGAGCCUUGGUUUUUUG

Variants of: B1
Assay: polymerase ribozyme fitness, log enrichment relative to wild type (log ratio); higher = more active; in vitro selection for triplet polymerase activity
Outline: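 Mutant libraries of each subunit of a heterodimeric triplet polymerase ribozyme were built by PCR and transcribed. Each library went through one round of in vitro selection in triplicate: annealing with biotinylated primer, partner subunit and triplets, frozen incubation at −7 °C, gel excision of extended constructs, streptavidin-bead capture and RT-PCR. Input and output libraries were Illumina-sequenced; only genotypes with ≥10 input reads and ≥1 read per output were kept. Fitness is log2(genotype enrichment/wild-type enrichment), using inverse-variance-weighted replicate averages.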

In order of falling “polymerase ribozyme fitness (log ratio)” value:
1. GACCAAUCUGCCCUCAGAGCUCGAGAACAUCUUCGGAUGCAGAGGUGGUAGGCUUCGGUGGCGCGAUAGCGACAACGUCCUCAACCUCCAAUGCAUCCCACCACAUGAUGAUGCCUGAAGAGCCUUGGUUUUUUG [A46U C49U C72A]  0.459
2. GACCAAUCUGCCCUCAGAGCUCGAGAACAUCUUCGGAUGCAGAGGUGGCAGGCUUCGGUGGCGCGAUAGCGCCUACGUCCUCAACCUCCAAUGCAUCCCACCACAUGAUGAUGCCUGAGGAGCCUUGGUUUUUUG [A46U A74U A119G]  0.444
3. GACCAAUCUGCCCUCAGAGCUCGAGAACAUCUUCGGAUGCAGAGGGGGCAGGCUUCGGUGGCGCGAUAGCGCCAACGUCCUCAACCCCCAAUGCAUCCCACCACAUGAUGAUGCCUGAAGAGCCUUGGUUUUUUG [A46G U87C]  0.254
4. GACCAAUCUGCCCUCAGAGCUCGAGAACAUCUUCGGAUGCAGAGGGGGCAGGCUUCGGUGGCGCGAUAGCGCCAACGUCCUCAACCUCCAAUGCAUCCCACCACAAGAUGAUGCCUGAAGAGCCUUGGUUUUUUG [A46G U106A]  0.118
5. GACCAAUCUGCCCUCAGAGCUCGAGAACAUCUUCGGAUGCAGAGGGGGCAGGCUUCGGUAGCGCGAUAGCGCCAACGUCCUCAACCUCCAAUGCAUCCCACCACAUGAUGAUGCCUGAAGAGCCUUGGUUUUUUG [A46G G60A]  0.0971
6. GACCAAUCUGCCCUCAGAGCUCGAGAACAUCUUCGGAUGCAGAGGGGGCAGGCUUCGGUGUCGCGAUAGCGCCAACGUCCUCAACCUCCAAUGCAUCCCACCACAUGAUGAUGCCUGAAGAGCCUUGGUUUUUUG [A46G G61U]  -0.252
7. GACCAAUCUGCCCUCAGAGCUCGAGAACAUCUUCGGAUGCAGAGGUGGAAGGCUUCGGUGGCGCGAUAGCGCCAACGUCCUCAACCUCCAAUGCAUCCCACCACAUGAUGAUGCCUGAAGAGCCUUGGUUUUUUG [A46U C49A]  -0.332
8. GACCAAUCUGCCCUCAGAGCUCGAGAACAUCUUCGGAUGCAGAGGUGGCAGGAUUCGGUGGCGCGAUAGCGCAAACGUCCUCAACCUCCAAUGCAUCCCACCACAUGAUGAUGCCUGAAGAGCCUUGGUUUUUUG [A46U C53A C73A]  -0.67
9. GACCAAUCUGCCCUCAGAGCUCGAGAACAUCUUCGGAUGCAGAGGUGGCAGGGUUCGGUGGCGCGAUAGCGCCAACGUCCUCAACCUCCAAUGCAUCCCACCACAUGAUGAUGCCUGAAGAGCCUUGGUUUUUUG [A46U C53G]  -0.865
10. GACCAAUCUGCCCUCAGAGCUCGAGAACAUCUUCGGAUGCAGAGGUGGCAGGCUUCGGUGGCGCGAUAGCGCCUACGUCCUCAACCUCCAAUGCAUCCCACCACAUGAUGAUGCCUGAAGAGCCUUGGUUUUUUG [A46U A74U]  -0.906
11. GACCAAUCUGCCCUCAGAGCUCGAGAACAUCUUCGGAUGCAGAGGGGGCAGGCUUCGGUGGCGCGAUAGCUCCAACGUCCUCAACCUCCAAUGCAUCCCACCACAUGAUGAUGCCUGAAGAGCCUUGGUUUUUUG [A46G G71U]  -1.19
12. GACCAAUCUGCCCUCAGAGCUCGAGAACAUCUUCGGAUGCAGAGGGGGCAGGCUUCGGUGGCCCGAUAGCGCCAACGUCCUCAACCUCCAAUGCAUCCCACCACAUGAUGAUGCCUGAAGAGCCUUGGUUUUUUG [A46G G63C]  -1.22
13. GACCAAUCUGCCCUCAGAGCUCGAGAACAUCUUCGGAUGCAGAGGUGGCAGGCUUUGGUGGCGCGAUAGCGCCAACGUCCUCAACCUCCAAUGCAUCCCAUCACAUGAUGAUGCCUGAAGAGCCUUGGUUUUUUG [A46U C56U C101U]  -1.33
14. GACCAAUCUGCCCUCAGAGCUCGAGAACAUCUUCGGAUGCAGAGGUGGCAGGCUUCGGUGGCGCGAUAGCGCCCACGUCCUCAACCUCCAACGCAUCCCACCACAUGAUGAUGCCUGAAGAGCCUUGGUUUUUUG [A46U A74C U92C]  -1.48
15. GACCAAUCUGCCCUCAGAGCUCGAGAACAUCUUCGGAUGCAGAGGUGGCAGGCUUCGGUGGCGCGAUAGCGCCUACGUCCUAAACCUCCAAUGCAUCCCACCACAUGAUGAUGCCUGAAGAGCCUUGGUUUUUUG [A46U A74U C82A]  -1.61
16. GACCAAUCUGCCCUCAGAGCUCGAGAACAUCUUCGGAUGCAGAGGUGGGAGGCUUCGGUGGCGCGAUAGCGCCAACGUCCUCAACCUCCAAUGCAUCCCACCACAUGAUGAUGCCUGAAGAGCCUUGGUUUUUUG [A46U C49G]  -1.75
17. GACCAAUCUGCCCUCAGAGCUCGAGAACAUCUUCGGAUGCAGAGGGGGCAGGCUUCGGUUGCGCGAUAGCGCCAACGUCCUCAACCUCCAAUGUAUCCCACCACAUGAUGAUGCCUGAAGAGCCUUGGUUUUUUG [A46G G60U C94U]  -1.81
18. GACCAAUCUGCCCUCAGAGCUCGAGAACAUCUUCGGAUGCAGAGGUGGCAGGCUUGGGUGGCGCGAUAGCGCCAACGGCCUCAAUCUCCAAUGCAUCCCACCACAUGAUGAUGCCUGAAGAGCCUUGGUUUUUUG [A46U C56G U78G C85U]  -1.84
19. GACCAAUCUGCCCUCAGAGCUCGAGAACAUCUUCGGAUGCAGAGGUGGCAGGCUUCGGUGGCGCGGUAGCGCCAACGUCCUCAACCUCCAAUGCAUCCCACCACAUGAUGAUGCCUGAAGAGACUUGGUUUUUUG [A46U A66G C123A]  -2.03
20. GACCAAUCUGCCCUCAGAGCUCGAGAACAUCUUCGGAUGCAGAGGGGGCAGGCUUCGGUGGCGCGAUACCGCCAACGUCCUCAACCUCCAAUGCAUCCCACCACAUGAUGAUGCCUGAAGAGCCUUGGUUUUUUG [A46G G69C]  -2.16
21. GACCAAUCUGCCCUCAGAGCUCGAGAACAUCUUCGGAUGCAGAGGUGGGAGGCUUCGGUGGCGCGAUAGUGCCAACGUCCUCACCCUCCAAUGCAUCCCACCACAUGAUGAUGCCUGAAGAGCCUUGGUUUUUUG [A46U C49G C70U A84C]  -2.21
22. GACCAAUCUGCCCUCAGAGCUCGAGAACAUCUUCGGAUGCAGAGGGGGCAGGCUUCGGUGGCGCGAUAUCGCCAACGACCUCAACCUCCAAUGUAUCCCACCACAUGAUGAUGCAUGAAGAGCCUUCGUUUUUUG [A46G G69U U78A C94U C115A G127C]  -2.24
23. GACCAAUCUGCCCUCAGAGCUCGAGAACAUCUUCGGAUGCAGAGGUGGCAGGCUUCGGUGGCGCGAUAGCGCCUACGUCCUCAACCGCCAAUACAUCUCACCACAUGAUGAUGCCUGAAGAGCCUUGGUUUUUUG [A46U A74U U87G G93A C98U]  -2.38
24. GACCAAUCUGCCCUCAGAGCUCGAGAACAUCUUCGGAUGCAGAGGUGGCAGGCUUCGGUGGAGCGAUAGCGCCAACGUCCUCAACCUCCAAUGCAUCCCACCACAUGAUGAUGCCUGAAGAGCCUUGGUUUUAUG [A46U C62A U133A]  -2.52
25. GACCAAUCUGCCCUCAGAGCUCGAGAACAUCUUCGGAUGCAGAGGGGGCAGGCUCCGGUGGCGCGAUAGUGCCAACGUCCUCAACCUCCAAUGCAUCCCUCCACAUGAUGAUGCCUGAAGAGCCUUAGUUUUUUG [A46G U55C C70U A100U G127A]  -2.53
26. GACCAAUCUGCCCUCAGAGCUCGAGAACAUCUUCGGAUGCAGAGGGGGCAGGCUUCGGUGGCGCGAUACCGCCAACGUCCUCAACCUCCAAUGCAUCCCACCACAUGAUGAUACCUGAAGAGCCUUGGUUUUUUG [A46G G69C G113A]  -3.12
27. GACCAAUCUGCCCUCAGAGCUCGAGAACAUCUUCGGAUGCAGAGGUGGCAGGCUUCGGUGGCGCGAUAGCGCCGACGUCCUCAACCUCCAAUGCAUCCCAACACAUGAUGAUGCCUGAAGAGCCUUGGUUUUUUG [A46U A74G C101A]  -3.42
28. GACCAAUCUGCCCUCAGAGCUCGAGAACAUCUUCGGAUGCAGAGGUGGCAGGCUUUGGUGGCGCGAUAGCGGCAACGUCCUCAACCUCCAAUGCAUCCCACCACAUGAUGAUGCCUGAAGAGGCUUGGUUUUUUG [A46U C56U C72G C123G]  -3.53
29. GACCAAUCUGCCCUCAGAGCUCGAGAACAUCUUCGGAUGCAGAGGUGGCAGGCUUCGGUGGCGCGAUAGCGCCAACGUCCUCAUCCUCCAAUGCUUCCCACAACAUGAUGAUGCCUGAAGAGCCUUGGUUUUUUG [A46U A84U A95U C102A]  -4.22
30. GACCAAUCUGCCCUCAGAGCUCGAGAACAUCUUCGGAUGCAGAGGUGGCUGGCUUCGGUGUCGCGAUAGCGCCAACGUCCUCAACCUCCAAUGCAUCCCACCACAUGAUGAUGCCUGAAGAGCCCUGGUUUUUUG [A46U A50U G61U U125C]  -4.52
31. GACCAAUCUGCCCUCAGAGCUCGAGAACAUCUUCGGAUGCAGAGGUGGUAGGCUUCGGUGGCGCGAUAGCGCCUACGUCCUCAACCUCCAAUGCAUCCCACUACAUGAUGAUGCCUGAAGAGCCUUGGUUUUUUG [A46U C49U A74U C102U]  -4.53
32. GACCAAUCUGCCCUCAGAGCUCGAGAACAUCUUCGGAUGCAGAGGGGGCAGGCUUCGUUGGCGCGAUAACGCCAACGUCCUCAACCUCCAAUGCAUCCCACCACAUGAUAAUGCCUGAAGAGCCUUGGUUUUUUG [A46G G58U G69A G110A]  -4.68
33. GACCAAUCUGCCCUCAGAGCUCGAGAACAUCUUCGGAUGCAGAGGUGGCAGGUUUCGGUGGCGCGAUAGCGCCAACGUCCUCAACCUCCAUUGCAUCCCACCACAUGAUGAUUCCUGAAGAGCCUUGGUAUUUUG [A46U C53U A91U G113U U130A]  -4.7
34. GACCAAUCUGCCCUCAGAGCUCGAGAACAUCUUCGGAUGCAGAGGUGGCAGGCUUCGGUGGCGCGAUAGCGCCAACGUCCUCACCCUCCAAUGCAUCCCACCAAAUGAUGAUGCCUGAAGAGCCUUGUUUUUUUG [A46U A84C C104A G128U]  -4.76
35. GACCAAUCUGCCCUCAGAGCUCGAGAACAUCUUCGGAUGCAGAGGGGGCAGGCUUCGGUGGCGCGAUAACGCCAACGUCCUCAACCUCCAAUGCAUCCCACCACAUGAUAAUGCCUGAAGAGCCUUGGUUUUUUG [A46G G69A G110A]  -4.77
36. GACCAAUCUGCCCUCAGAGCUCGAGAACAUCUUCGGAUGCAGAGGGGGCAGGCUUCGGUGGCGCGAUAGCGCCAACGUCCUCAACCUCCAAUGCAUCCCACCACAUAAUGAUGCCUGAAGAGCCUUGGUUUUUUG [A46G G107A]  -4.88
37. GACCAAUCUGCCCUCAGAGCUCGAGAACAUCUUCGGAUGCAGAGGUGGCAGGCUUCGGUGGCGCGAUAGCGCCAACGUCCUCAACCUCCAAUGCGUCCCACCACAUGAUGAUGCUUGAAGAGCCUUGAUUUUUUG [A46U A95G C115U G128A]  -4.98
38. GACCAAUCUGCCCUCAGAGCUCGAGAACAUCUUCGGAUGCAGAGGUGGUAGGCUUCGGUGGCUCGAUAGCGCCAACGUCCUCAACCUCCAAUGCAUCCCACCACAUGAUGAUGCUUGAAGAGCCUUGGUUUUUUG [A46U C49U G63U C115U]  -5.27
39. GACCAAUCUGCCCUCAGAGCUCGAGAACAUCUUCGGAUGCAGAGGUGGCAGGCUUCGGUGGAGCGAUGGCGCCAACGUCCUCAACCUCCAAUGCAUCCCACCACAUGAUAAUGCCUGAAGAGCCUUGGUUUUUUG [A46U C62A A68G G110A]  -5.73
40. GACCAAUCUGCCCUCAGAGCUCGAGAACAUCUUCGGAUGCAGAGGUGGCAGGCUUCGGUGGGGCGAUAGCGCCAACGUCCUCAACCUCCAAUGCAUCCCACCACAUGAUAAUGCCUGAAGAGCCUUGGUUUUUUG [A46U C62G G110A]  -5.8
41. GACCAAUCUGCCCUCAGAGCUCGAGAACAUCUUCGGAUGCAGAGGGGGCAGGCUUCGGUGGCGCGAUAGCACCAACGUCAUCAACCUCCAAUGCAUCCCACCACAUGAUGAUGCCUGAAGAGCCUUGGCUUUUUG [A46G G71A C80A U129C]  -5.8
42. GACCAAUCUGCCCUCAGAGCUCGAGAACAUCUUCGGAUGCAGAGGUGGUAGGCUUCGGUGGCGCGAUAGCGCCAACGUCCUCAACCUCCAAAGCAUCCCACCACAAGAUGAUGCCUGAAGAGCCUUGGUUUUUUG [A46U C49U U92A U106A]  -7.34
